Experimental data from the RNAGym collection of RNA variant scans (doi:10.1073/pnas.2313332121).
Fewer inactive variants are shown than the library holds.

B1: TPR 5TU (parent)
chain: GGAUCUUCUCGAUCUAACAAAAAAGACAAAUCUGCCACAAAGCUUGAGAGCAUCUUCGGAUGCAGAGGCGGCAGCCUUCGGUGGCGCGAUAGCGCCAACGUUCUCAACUAUGACACGCAAAACGCGUGCUCCGUUGAAUGGAGUUUAUCAUG

Variants of: B1
Assay: polymerase ribozyme fitness, log enrichment relative to wild type (log ratio); higher = more active; in vitro selection for triplet polymerase activity
Method in brief: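 The heterodimeric triplet polymerase ribozyme's subunits were each mutagenized into PCR-built libraries and transcribed. Every library was selected once, in triplicate, by annealing with a biotinylated primer, the partner subunit and triplets, incubating frozen at −7 °C, gel-excising extended constructs, capturing on streptavidin beads and running RT-PCR. Input and output libraries were Illumina-sequenced, with genotypes kept only at ≥10 input reads and ≥1 read per output. Fitness, from inverse-variance-weighted replicate averages, is the base-2 logarithm of genotype enrichment over wild-type enrichment.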

Variant | polymerase ribozyme fitness (log ratio)
A30U A73U A98U U135G | ≤ -4.2
A30C C43G U45A C87A C103A | ≤ -4.2
A29U U44A C85G G124A G152A | ≤ -4.2
A30U G50C | ≤ -4.2
A30C G92A U104A A106C C108A | ≤ -4.2
A30G C75G C93U A121G | ≤ -4.2
U31A A40G U44G G141C | -4.06
A29U U104C | -4.14
U31A A97U | -0.316
A30G C38A C57A G58C U78G A97G U101C U102G | ≤ -4.2
A30U C69G C79A C87G G126A G140C | ≤ -4.2
A29U A40G | -4.2
U31A C38U C95U C96A | -1.16
A30G G74U C93A U102C U127G C129G U144G | ≤ -4.2
A29U A91U | ≤ -4.2
A29U A40U G68U C69U G92A G140C | ≤ -4.2
A30G C87A A91C A110U A115U U135C | ≤ -4.2
A30G A138G | ≤ -4.2
A30C C96G | -4.03
A30C C87G U101C | ≤ -4.2
A30C C63U A66C A73U C85A A91C U109G | ≤ -4.2
A30C C35U G88U C116G | -3.99
U31A A91G U144G | -1.84
U31A C75G C76G C96A U145G | ≤ -4.2

Variant | polymerase ribozyme fitness (log ratio)
A30C G46U G94U G143A | ≤ -4.2
A30U U77G G84U C129G G152C | ≤ -4.2
A29U G84U U135A | ≤ -4.2
A29U U31G C72U G83C | ≤ -4.2
A30G G50U U55G U82A | ≤ -4.2
A30C C35U G59A G88U G117A | ≤ -4.2
A29U G126A | ≤ -4.2
A29U C114U A137G G141A U148C | ≤ -4.2
A30C C87A | ≤ -4.2
A29U C95A | -3.68
A29U C95U | -3.54
A30U A52G G67U C132U | ≤ -4.2
A30G C85U G128A | ≤ -4.2
U31A A66C G67C G88A G141A U146G | ≤ -4.2
A30G A49C G88U A110G | ≤ -4.2
A30U G94C A121G | -3.43
A29U G92C U102C C116U | ≤ -4.2
A30U A52C U82A U101A G128A G136U G141C | ≤ -4.2
A30G U33G U82C C103A U144A | ≤ -4.2
A29U C36A A47C C118U U146C | ≤ -4.2
A30G A60U C85A C95A C96A C125U A150C | ≤ -4.2
U31A A49C C99G C108G | ≤ -4.2
A30G A52C U53C C93A G100C C132A | ≤ -4.2
U31A A39G G94U | -2.07

Variant | polymerase ribozyme fitness (log ratio)
A30U A49C G58A A119C G128U U134G | ≤ -4.2
A30G G46C G50U C57U C118G | ≤ -4.2
A30U C75G G84U C103G G124C | ≤ -4.2
U31A C95G C125A | -1.34
A30G G50C C76U C103G | ≤ -4.2
A30U G46U U55G C79A U101G C108G C116U A119G G136U | ≤ -4.2
U31A U55A C95U G128U A137C G143U | ≤ -4.2
A30U G92U | -3.52
A30C C57U G81C C87G A97U U109G G141A | ≤ -4.2
A29U C96U G136U | ≤ -4.2
A30C A39U U44A U53A C93A | ≤ -4.2
A30C C75G U78G C95G | ≤ -4.2
A29U C38U G86A | ≤ -4.2
A30U G94C A150U | -3.55
A30C U111G C129U G136U | ≤ -4.2
A30C C36G U77G C116U C125U G133C | ≤ -4.2
A29U A49C G68U A73C A91C C103G | ≤ -4.2
A29U U55A G62C C116G | ≤ -4.2
A30G C85U | -3.06
A29U G84A | ≤ -4.2
U31C A41G A66C G68C C95G | ≤ -4.2
A29U A52C G68C C96U C99G A121U G126A A150U | ≤ -4.2
A30C A52G A106C U146C | ≤ -4.2
A29U G48A U61G G84U C85A C105U G126U | ≤ -4.2

Variant | polymerase ribozyme fitness (log ratio)
A29U C54G U56G A60G | ≤ -4.2
A30U U53A | -3.18
A29U G58U U61A U82A G86A A119G | ≤ -4.2
A29U G59U C93U | ≤ -4.2
A30C U53A U78G G84U A137G | ≤ -4.2
A29U G50C A52C A64C U77C G92C G94A C95A A115C U139G | ≤ -4.2
U31A C43U U44G G62A G71A U90G A91C | ≤ -4.2
A30C A91C A98U A119U | ≤ -4.2
U31A C54A G84U C85U | -2.6
A30G G42A C96G G100A U139C U148C | ≤ -4.2
A30G C76A C95A | ≤ -4.2
A30C A41C C43U U53A C93U C125U A137G | ≤ -4.2
A30U C69U C85U A106G C123U A137G | ≤ -4.2
A30C G46U C95G U102G | ≤ -4.2
A29U U45A G94C C105A A113U U130G U135G | ≤ -4.2
A29U A89U G94A C116G G141A | ≤ -4.2
A29U C76A C87A C93A C129A | ≤ -4.2
A30G C95G | -3.11
A30G A47G U56A G71C G117U A150U | ≤ -4.2
A30U G74A C93G C103A A106G A113U | ≤ -4.2
A30U A49G | ≤ -4.2
A30U A40U C87G C103G G141A | -3.9
A30G U82G A122G U146G | -4.18
U31A G67U G83A C85A U104G C105U G136A | ≤ -4.2

Variant | polymerase ribozyme fitness (log ratio)
A29U G71C C93U U109G G124C | ≤ -4.2
A30C C87G C99G C132A G140U | ≤ -4.2
A30C C95G C108U C132G G133U | ≤ -4.2
U31A C93G C95U C96A A113G | ≤ -4.2
U31A A49C C93U C118A A121U | ≤ -4.2
A30U G42U A119G A138G | ≤ -4.2
A30G C32A C43A C93A C105A | ≤ -4.2
A29U U44G A49C C103G G141C | ≤ -4.2
A30U U101G | -3.89
A29U U33A U102G A113U U144C | ≤ -4.2
A29U U53C | ≤ -4.2
A29U U53A | -4.15
A30U U56A G59A G94U C125A U127A U144A | ≤ -4.2
A30C A41C C57A G62C G92A C131G | ≤ -4.2
A29U G59A G140A | ≤ -4.2
A30C G92A G100C | ≤ -4.2
A30U C36A C85U G92A C96A | ≤ -4.2
A30C A52C G83U G84C U135A G141C | ≤ -4.2
A30G A66G C108G | ≤ -4.2
A30G U44A A49U C87U G88A G92A A115U | ≤ -4.2
A30U G86U | ≤ -4.2
A30U U45A G94U C131G | ≤ -4.2
A29U G46U G70U U90G C95U A115G G117U A120U | ≤ -4.2
A30G A49C C93G | ≤ -4.2

Variant | polymerase ribozyme fitness (log ratio)
A29U C54U G62A A113G U139G U148A | ≤ -4.2
A30U C35U G84A | -4.19
U31A C93U | 0.0654
A29U U101G U104G | ≤ -4.2
U31C A41C A91C C95G U139A G143C | ≤ -4.2
A30U G58A C87U U90G U101A A110C G112A G126U | ≤ -4.2
A30C C95G A119U C132U | ≤ -4.2
U31A C93A U127C | -3.92
A30U U134C | -3.45
U31A | 0.37
U31C | 0.947
A30C U55G C95A U135G U148A | -3.85
U31A A106G | 0.863
A30U C54A U55G G86C C105A A119G G136U A142U | ≤ -4.2
A30G C85U U134C | -3.93
A29U A52G U55C U134A | ≤ -4.2
U31A C96U C99A | -1.23
A30C G42A C54U G58A U90G C93G C96U C125A U148A | ≤ -4.2
A29U A47C U55G C87U A98G | ≤ -4.2
A29U A64C C85G | ≤ -4.2
A29U C35G G71C | ≤ -4.2
A30G G86A | -3.45
U31A U134A | -1.82
A30U U55G C63U A110U G126U | -4.07

Variant | polymerase ribozyme fitness (log ratio)
U31A G58A U61A G84U A89C | -3.15
A30U C87U | -3.22
U31A C75G C95U C118U | -3.7
A29U G141C | -3.49
A30U G88C G92U C95A | ≤ -4.2
A30U C35U A52C C96U A107G C108G C114A | ≤ -4.2
A30G A41U C69G C76U G94U U102G U130C | ≤ -4.2
U31A G58C G74C U139C U146A | ≤ -4.2
A30G A39U A52G U55G | -4.08
A30G C35G G59U A113C C131A | ≤ -4.2
A30U G70A | ≤ -4.2
A29U C103U | ≤ -4.2
A29U U31A U56G A66G C96U C105A A138U | ≤ -4.2
U31A G70A C76A C96U | ≤ -4.2
A30U C51G A98U G136U | ≤ -4.2
A30C U31G U82A G92C C103A U134G | ≤ -4.2
A30C C79U A91G C114U G136C | ≤ -4.2
A29U G42U G84U C114A | ≤ -4.2
A30G C79U G124U U135A | ≤ -4.2
A29U A40C G46A G67A G81A C85G A113C A137G | ≤ -4.2
A30U U56G U82C G84U C95U | ≤ -4.2
A30G A41C | -3.51
A29U C93G | ≤ -4.2
